# T1: fHbp m001177 (Neisseria meningitidis fHbp v3.28-based …, point mutant)
# T1 chain: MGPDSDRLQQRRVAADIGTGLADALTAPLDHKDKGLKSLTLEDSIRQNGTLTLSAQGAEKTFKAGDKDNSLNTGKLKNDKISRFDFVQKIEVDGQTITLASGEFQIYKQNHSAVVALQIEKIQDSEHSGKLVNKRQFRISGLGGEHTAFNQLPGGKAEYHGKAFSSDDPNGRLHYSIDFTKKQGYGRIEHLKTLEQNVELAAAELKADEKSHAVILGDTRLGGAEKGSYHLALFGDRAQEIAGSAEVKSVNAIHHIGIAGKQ
# T2: fHbp m001720 (Neisseria meningitidis, engineered fHbp …, point mutant)
# T2 chain: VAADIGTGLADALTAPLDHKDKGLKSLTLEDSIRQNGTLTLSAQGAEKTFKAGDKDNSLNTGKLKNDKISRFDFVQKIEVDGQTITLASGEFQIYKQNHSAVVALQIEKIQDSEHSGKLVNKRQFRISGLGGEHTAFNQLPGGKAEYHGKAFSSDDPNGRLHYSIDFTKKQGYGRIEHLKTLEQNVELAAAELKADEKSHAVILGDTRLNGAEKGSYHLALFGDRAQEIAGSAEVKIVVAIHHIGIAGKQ
# T3: fHbp m001037 (Neisseria meningitidis fHbp v3.28, …, point mutant)
# T3 chain: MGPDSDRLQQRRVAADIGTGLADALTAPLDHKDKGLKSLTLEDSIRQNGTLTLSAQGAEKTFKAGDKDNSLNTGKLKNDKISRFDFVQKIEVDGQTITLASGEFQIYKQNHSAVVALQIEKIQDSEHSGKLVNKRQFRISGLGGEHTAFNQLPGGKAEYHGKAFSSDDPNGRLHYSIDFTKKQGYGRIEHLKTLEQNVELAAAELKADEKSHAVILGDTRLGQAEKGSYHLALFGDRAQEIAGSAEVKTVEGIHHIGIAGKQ
# T4: fHbp m001039 (Neisseria meningitidis fHbp v3.28, …, point mutant)
# T4 chain: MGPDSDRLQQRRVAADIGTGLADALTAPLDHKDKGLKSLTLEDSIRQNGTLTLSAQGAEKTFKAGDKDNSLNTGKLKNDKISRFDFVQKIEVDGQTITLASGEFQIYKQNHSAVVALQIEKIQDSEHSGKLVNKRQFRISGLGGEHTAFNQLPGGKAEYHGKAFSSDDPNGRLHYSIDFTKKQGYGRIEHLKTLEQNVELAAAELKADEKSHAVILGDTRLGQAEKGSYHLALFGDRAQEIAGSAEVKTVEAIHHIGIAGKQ
# T5: fHbp m001497 (Neisseria meningitidis, fHbp …, point mutant)
# T5 chain: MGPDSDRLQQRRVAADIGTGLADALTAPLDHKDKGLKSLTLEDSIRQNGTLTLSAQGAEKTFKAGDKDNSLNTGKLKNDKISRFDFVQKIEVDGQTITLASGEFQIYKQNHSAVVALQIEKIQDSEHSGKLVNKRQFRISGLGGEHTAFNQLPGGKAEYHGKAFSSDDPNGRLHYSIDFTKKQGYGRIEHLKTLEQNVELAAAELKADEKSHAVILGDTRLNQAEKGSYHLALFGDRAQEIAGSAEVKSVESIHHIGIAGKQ
# T6: fHbp m002336 (Neisseria meningitidis fHbp v3.28, …, chimera)
# T6 chain: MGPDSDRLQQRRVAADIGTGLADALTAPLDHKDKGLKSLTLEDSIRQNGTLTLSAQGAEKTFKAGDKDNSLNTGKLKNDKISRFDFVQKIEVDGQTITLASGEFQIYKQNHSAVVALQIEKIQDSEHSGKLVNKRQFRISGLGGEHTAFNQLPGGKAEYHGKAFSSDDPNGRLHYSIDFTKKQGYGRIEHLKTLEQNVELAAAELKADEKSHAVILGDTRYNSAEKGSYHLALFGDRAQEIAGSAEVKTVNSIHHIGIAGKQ
# T7: fHbp m001847 (Neisseria meningitidis, engineered fHbp …, chimera)
# T7 chain: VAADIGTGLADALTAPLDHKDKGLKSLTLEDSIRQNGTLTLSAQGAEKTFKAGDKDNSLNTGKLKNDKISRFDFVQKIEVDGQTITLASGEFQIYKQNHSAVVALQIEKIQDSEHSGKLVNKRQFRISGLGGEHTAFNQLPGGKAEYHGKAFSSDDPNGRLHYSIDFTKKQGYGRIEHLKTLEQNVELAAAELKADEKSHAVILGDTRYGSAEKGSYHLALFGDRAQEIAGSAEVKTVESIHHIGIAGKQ
# T8: fHbp m001152 (Neisseria meningitidis fHbp v3.28-based …, point mutant)
# T8 chain: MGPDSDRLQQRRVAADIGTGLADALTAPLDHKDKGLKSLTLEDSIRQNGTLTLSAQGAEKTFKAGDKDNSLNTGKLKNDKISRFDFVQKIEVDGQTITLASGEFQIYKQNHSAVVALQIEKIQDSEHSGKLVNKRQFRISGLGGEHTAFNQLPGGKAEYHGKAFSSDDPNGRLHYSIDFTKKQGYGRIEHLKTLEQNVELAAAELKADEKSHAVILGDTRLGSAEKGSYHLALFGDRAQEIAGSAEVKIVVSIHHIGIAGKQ
# T9: fHbp m001661 (Neisseria meningitidis, fHbp …, point mutant)
# T9 chain: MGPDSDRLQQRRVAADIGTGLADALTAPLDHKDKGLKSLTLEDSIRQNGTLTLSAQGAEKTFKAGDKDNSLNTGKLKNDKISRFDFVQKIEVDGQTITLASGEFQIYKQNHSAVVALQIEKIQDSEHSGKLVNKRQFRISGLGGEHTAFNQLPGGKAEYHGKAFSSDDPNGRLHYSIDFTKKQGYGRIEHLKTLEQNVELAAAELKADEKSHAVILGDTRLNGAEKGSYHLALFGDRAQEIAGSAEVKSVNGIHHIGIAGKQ
# What was measured:
# Experiment in all cases: BLI
# Details in all cases: both partners purified
# fHbp m001177 = molecular target: T1, fHbp m001177
# fHbp m001720 = molecular target: T2, fHbp m001720
# fHbp m001037 = molecular target: T3, fHbp m001037
# fHbp m001039 = molecular target: T4, fHbp m001039
# fHbp m001497 = molecular target: T5, fHbp m001497
# fHbp m002336 = molecular target: T6, fHbp m002336
# fHbp m001847 = molecular target: T7, fHbp m001847
# fHbp m001152 = molecular target: T8, fHbp m001152
# fHbp m001661 = molecular target: T9, fHbp m001661
Binder,Kd (fHbp m001177),koff (fHbp m001177),kon (fHbp m001177),Kd (fHbp m001720),koff (fHbp m001720),kon (fHbp m001720),Kd (fHbp m001037),koff (fHbp m001037),kon (fHbp m001037),Kd (fHbp m001039),koff (fHbp m001039),kon (fHbp m001039),Kd (fHbp m001497),koff (fHbp m001497),kon (fHbp m001497),Kd (fHbp m002336),koff (fHbp m002336),kon (fHbp m002336),Kd (fHbp m001847),koff (fHbp m001847),further results
"mAb 1E6 (human) (antibody, V domains shown, source: Expi293, purified (MabSelect SuRe, SEC); copies: 2 + 2) VH: EVQLVQSGAEVKKPGSSVKVSCKASGGTVIDYPITWVRQAPGQGLEWVGGFVPLFRTSNYGQKFQGRVTITADKSTSTASMELNSLTSEDTAIYYCARGDTAMGPFDYWGQGTLVTVSS VL: SYVLTQPPSLSVAPGKTATLTCGGNNIAGKTVHWYQQRPGQAPVLVISYDSDRPSGIPERFSGSNSANTATLTISRVEAGDEADYYCQVWDRNSDHWVFGGGTKLTVL",0.609 nM,0.000279 s⁻¹,457500 ± 1660 M⁻¹ s⁻¹,0.788 nM,0.000292 s⁻¹,370200 ± 1240 M⁻¹ s⁻¹,0.349 nM,0.000144 s⁻¹,413700 ± 3870 M⁻¹ s⁻¹,0.655 nM,0.00031 s⁻¹,473100 ± 1890 M⁻¹ s⁻¹,0.563 nM,0.000176 s⁻¹,311700 ± 2460 M⁻¹ s⁻¹,< 0.001 nM,< 1e-07 s⁻¹,676300 ± 4120 M⁻¹ s⁻¹,0.348 nM,0.000123 s⁻¹,kon (fHbp m001847): 353300 ± 2150 M⁻¹ s⁻¹; Kd (fHbp m001152): 0.291 nM; koff (fHbp m001152): 0.000121 s⁻¹; kon (fHbp m001152): 415300 ± 2380 M⁻¹ s⁻¹; Kd (fHbp m001661): 0.678 nM; koff (fHbp m001661): 0.000193 s⁻¹; kon (fHbp m001661): 285300 ± 2180 M⁻¹ s⁻¹
"chimeric antibody h12C1 (antibody, V domains shown, also called humanized 12C1; source: Expi293, purified (MabSelect SuRe, SEC); copies: 2 + 2) VH: QVQLQESGPELVKPGASVKISCKASGYSFSDYNMSWVKQSNGKSLEWIGIIDPKYGTINYNQKFKGKATLTVDQASSTAYMQLNSLTSEDSAVYYCVRDYYGSSYFDYWGQGTTLTVSS VL: DIVLTQSPSSIYASLGERVTLTCKASQDIHNYLNWFQQKPGKSPKTLIYRANRLVDGVPSRFSGGGSGQDYSLTISSLEFEDIGIYYCLQYDEFPPTFGGGTRLEIK",92.7 nM,0.02257 ± 0.000177 s⁻¹,244000 ± 9380 M⁻¹ s⁻¹,1.04 nM,0.000368 s⁻¹,354900 ± 1290 M⁻¹ s⁻¹,0.893 nM,0.000269 s⁻¹,300900 ± 2650 M⁻¹ s⁻¹,65.7 nM,0.0146 s⁻¹,223000 ± 3080 M⁻¹ s⁻¹,3.06 nM,0.000593 s⁻¹,193000 ± 2790 M⁻¹ s⁻¹,47.1 nM,0.01231 ± 0.000116 s⁻¹,261000 ± 9540 M⁻¹ s⁻¹,108 nM,0.00885 ± 0.000103 s⁻¹,kon (fHbp m001847): 81800 ± 5640 M⁻¹ s⁻¹; Kd (fHbp m001152): 45.9 nM; koff (fHbp m001152): 0.00937 s⁻¹; kon (fHbp m001152): 204000 ± 3360 M⁻¹ s⁻¹; Kd (fHbp m001661): 167 nM; koff (fHbp m001661): 0.0207 ± 0.000141 s⁻¹; kon (fHbp m001661): 124000 ± 4490 M⁻¹ s⁻¹
